These results are taken from article PMC6315849.

pKd: −log10 of the molar value.

This test deals with Labeled Vip3Aa (MST) (Bacillus thuringiensis). The experiment in a line: MST; labeled Vip3Aa 10 nM, GST-FGFR-N titrated 0.3 nM to 10 µM; 25 mM HEPES pH 7.5, 0.05% Tween-20, 150 mM NaCl; 25 °C; Hill equation fit; three independent experiments.

By pKd is commonly meant the Kd on a negative log10 scale, so that one unit is a factor of ten. Low values mean a high Kd, high ones a low Kd. As to “GST-FGFR-N (extracellular regions of Sf-FGFR, aa 27-415, with a GST tag) (domain or fragment)”, the pKd is 5.84.
